Experimental data published in article PMC10853454, “ADAM19 cleaves the PTH receptor and associates with brachydactyly type E” (Life Science Alliance, 2024).

How the values were obtained:
[1] = system: ADAM19 / EYFP-PTHR1; assay: ADAM19 shedding assay, EYFP-PTHR1 supernatant/cell fluorescence ratio; type: cell-based, human; conditions: HEK-293T cells, EYFP-PTHR1 + WT ADAM19; 100 μM ilomastat in DMEM from 1 h after transfection, 48 h (method: 47 h); EYFP fluorescence 500/539 nm; n = 5, t test
Protocol: For fluorescence-based shedding experiments, HEK-293T cells were seeded in six-well cell culture plates at a density of 500,000 cells per well 24 h prior to transfection. Next day, cells in each well were transfected with 0.4 μg EYFP-PTHR1 plasmid and 0.8 μg ADAM19 or empty pcDNA3 vector plasmids. For the experiments in which the different ADAM:EYFP-PTHR1 ratios were examined, cells were transfected with a constant 0.3 μg EYFP-PTHR1 construct alongside with varying amounts of ADAM19 and pcDNA constructs to maintain the total DNA amount of 1.2 μg. 1 h after transfection, cells were supplemented with DMEM or with 100 μM ilomastat dissolved in DMEM. […] 96-well plate fluorescence measurements were performed using a Biotek Neo2 multi-well plate reader. EYFP intensity was measured using high lamp power settings at an excitation wavelength of 500/18 nm. Fluorescence was detected using a monochromator set to 539/20 nm for emission and a photomultiplier tube set to 120 V gain. To calculate and quantify the ADAM19-mediated shedding of PTHR1 N-terminus, background fluorescence value obtained from pure DMEM was subtracted from fluorescence values obtained from cell culture medium (Fsupernatant) and cell suspensions (Fcell), and then the ratio of background-corrected fluorescence values was calculated: Ratio = Fsupernatant/Fcell. […]

[2] = system: ADAM19 cleavage of PTHR1; assay: PTHR1 cleavage by ADAM19, Western blot after PNGase F de-glycosylation; type: cell-based, human; conditions: HEK-293T (text: HEK 293) cells, unmodified PTHR1 + ADAM19, 10 μM batimastat, inhibitors added 24 h, lysis 36 h after transfection, Western blot anti PTHR1 573–593
Protocol: HEK-293T cells were seeded onto 12-well plates and transfected with plasmids encoding human P[…], ADAM-19 using TransIT-293 (Mirus) according to the manufacturer's instructions. Protease inhibitors were added to the medium 24 h after transfection as indicated. 36 h after transfection, cells were washed with PBS and lysed in ice-cold radioimmune precipitation assay buffer (50 mM Tris-HCl, pH 7.5, 150 mM NaCl, 1% [wt/vol] Nonidet P-40, 0.1% [wt/vol] SDS, 0.5% [wt/vol] sodium deoxycholate, 5 mM EDTA) supplemented with a mix of protease inhibitors (5 μM leupeptin, 5 μM pepstatin-A, 1 mM 4-(2-aminoethyl) benzenesulfonyl fluoride). The lysates were cleared by centrifugation at 20,000g for 30 min at 4°C. For deglycosylation, lysates were incubated with 40 mM dethiothreitol and 0.5% SDS for 90 min at 25°C. Thereafter, 1 mg/ml PNGase F was added, and samples were incubated for 16 h at 4°C. Proteins were separated by 8% or 10% SDS-PAGE and transferred onto PVDF membranes ([…], #T830.1; Carl Roth). The membranes were blocked in 5% skimmed milk powder (Sigma-Aldrich) or in casein solution (Sigma-Aldrich) for 1 h at RT. […] Proteins were detected either after short incubation in Immobilon Western ECL substrate (#WBKLS0500; Millipore) on an Odyssey FC device (Li-cor Biosciences) or on an Odyssey CLx scanner (Li-cor Biosciences). […]

[3] = system: PTHR1 (cAMP accumulation); assay: FRET-based cAMP accumulation assay (Epac-S-H187) in U2OS cells; type: cell-based, human; conditions: 500 pM ligand
Protocol: For cAMP accumulation assays, U2OS cells were seeded on Poly-D- Lysine-coated 24 mm glass cover slips in 6-well plates at a density of 1.0 × 10^6 cells/well and transfected with 1–2.4 μg cDNA per cover slip using Effectene (QIAGEN) or NEON electroporation (Thermo Fisher Scientific) according to the manufacturer’s protocol. cDNA was transfected with the EPAC-S-H187 FRET-biosensor ([Klarenbeek et al, 2015]), PTHR1-wt and ADAM19 at a ratio of 1:1:2. Fluorescence microscopy experiments were performed 48 h after transfection. For single-cell FRET imaging experiments, transfected cells on coverslips were transferred to imaging chambers (Attoflur; Thermo Fisher Scientific) and washed once and maintained in FRET imaging buffer (144 mM NaCl, 5.4 mM KCl, 2 mM CaCl2 [Carl Roth GmbH & Co. KG], 1 mM MgCl 2 [AppliChem], 10 mM HEPES [Sigma-Aldrich Chemie GmbH]; pH = 7.3). For the experiment, the cells remained at RT throughout the experiment. […]
After selecting suitable cells at the microscope, regions of interest (single cells and a cell-free background region) were chosen and recording parameters were set using the Visiview 4.0 imaging software (Visitron Systems). Every 5 s, images of the donor and acceptor emission channels were recorded following donor excitation at 436 nm for 100 ms. […] After every experiment, direct YFP excitation at 505 nm (emission: 560 nm) was recorded as a unit of measurement for the expression level of the sensor.
For data analysis, raw emission intensities from CFP and YFP channels were exported and corrected for background (by subtracting the emission intensities of a cell free region) and bleed-through of the donor fluorescence into the acceptor channel ([Borner et al, 2011]). FRET ratios (CFP/FRET in %) were calculated and normalized to baseline average of 10 data points before ligand addition, set to 0% and Forskolin/3-iso-butyl-1 methylxanthine (max. cAMP response, set to 100%). […]

[4] = system: PTHR1 (Gs activation); assay: BRET-based Gs activation by PTHR1; type: cell-based, human; conditions: HEK-293T cells with ADAM19; Gs BRET sensor, 37°C; three independent experiments in duplicates
Protocol: (§1) U2OS, Saos2 and HEK-293T cells were transfected with Gs or Gq protein BRET biosensors ([Che et al, 2010]), PTHR1 and ADAM19 at a ratio of 1:1:2. For β-arrestin2 BRET recruitment assay, PTHR1-Nanoluc was used with β-arrestin2-cpVenus and ADAM19 at a ratio of 1:1:2 ([Nemec et al, 2022]). Combinations were transfected with Effectene (QIAGEN) or NEON electroporation (Thermo Fisher Scientific) according to the manufacturer’s protocol with a total of 1–2.4 μg of cDNA. After 24 h cells were transferred into a PDL-precoated a white-wall, white-bottomed 96-well microtiter plate, at a density of 60,000 cells/well. 24 h after the reseeding, the medium was removed, and cells were washed once with PBS with 0.1% BSA and incubated with 90 μl of a 1:1,000 (vol:vol) stock solution of furimazine in PBS buffer. 5 min later, basal reads were recorded for 4 min and subsequently, 10 μl of 10-fold ligand solution or FRET buffer was applied to each well and the stimulated reads were further recorded. Measurements were performed at 37°C using a Synergy Neo2 Plate Reader with the NanoBRET filter set, integration time per data point was set to 0.3 s and gain to 110/140. Cells were excited at 510/20 nm and fluorescence emission was recorded at 560/20 nm for quantification of expression level ([Nemec et al, 2022]).

[5] = system: PTHR1 (β-arrestin2 recruitment); assay: BRET β-arrestin2 recruitment to PTHR1 in SaOS cells; type: cell-based, human; conditions: SaOS (Saos2) cells; PTHR1-Nanoluc + β-arrestin2-cpVenus BRET, 37°C
Protocol: as §1

[6] = system: PTHR1 (Gq activation); assay: BRET-based Gq activation by PTHR1; type: cell-based, human
Protocol: as §1

[7] = system: PTH1R; conditions: ref Hattersley et al, 2016; cited from earlier work
[8] = system: PTHR1 (β-arrestin2 recruitment); assay: BRET β-arrestin2 recruitment to PTHR1 in U2OS cells; type: cell-based, human
Protocol: as §1

## CNC(=O)[C@H](Cc1c[nH]c2ccccc12)NC(=O)[C@@H](CC(=O)NO)CC(C)C [Ilomastat (GM6001)]
[1]
  inhibition of PTHR1 cleavage by ADAM19: PTHR1 cleavage by ADAM19 was inhibited

## CNC(=O)[C@H](Cc1ccccc1)NC(=O)[C@H](CC(C)C)[C@H](CSc1cccs1)C(=O)NO [batimastat]
[2]
  PTHR1 species detected with ADAM19 co-expression: only the 60 kD species of PTHR1 were detected

## PTH1-34: PTHR1 ligand, BACHEM #4033364 (SVSEIQLMHNLGKHLNSMERVEWLRKKLQDVHNF; Parathyroid hormone; UniProt P01270 32-65, looked up, fragment)
[3]; U2OS cells with and without ADAM19, 0% = baseline, 100% = 10 μM Forskolin + 100 μM 3-iso-butyl-1 methylxanthine, "in both cases"
  increase of FRET ratio (CFP/FRET), average: 70–80%
[3]; U2OS cells, PTH1R + Epac-S-H187, alone and with ADAM19, single-cell FRET, RT, pH 7.3
  cAMP response: an increase in cAMP was detected
[3]; U2OS cells, PTH1-34 n = 96 cells on 5 days (Welch t test), PTHrP n = 76 cells on 2 days (Mann-Whitney)
  difference in cAMP response with vs without ADAM19: no significant differences

B1: PTH: parathyroid hormone; PTHR1 agonist, form used in BRET assays not specified (peptide, UniProt P01270 32-115, looked up)
Parathyroid hormone: SVSEIQLMHNLGKHLNSMERVEWLRKKLQDVHNFVALGAPLAPRDAGSQRPRKKEDNVLVESHEKSLGEADKADVNVLTKAKSQ
modifications: Parathyroid hormone
notes: parathyroid hormone; PTHR1 agonist, form used in BRET assays not specified
[4]
  Gs-activation for WT PTHR1 compared to cleavage-protected PTHR1-56-63A mutant: increased Gs-activation
[5]
  β-arrestin2 recruitment to PTHR1, presence vs absence of ADAM19: significantly increased β-arrestin translocation to the PTHR1 when ADAM19 was present
[6]; HEK293T with ADAM19, three-parameter non-linear fit, extra sum of squares F test (<0.0001), Fig 6B-E legend, panels not distinguished
  Top of the curve (maximum efficacy), Gq, WT vs 56–63A mutant PTHR1: significantly different
[6]; HEK-293T cells with ADAM19, Gq BRET sensor, 37°C, three independent experiments in duplicates
  Gq-activation for WT PTHR1 compared to cleavage-protected PTHR1-56-63A mutant: decreased Gq-activation
[7]
  agonist type at PTH1R: full agonists
[8]; PTHR1-Nanoluc + β-arrestin2-cpVenus BRET, 37°C, four experiments in quadruple
  β-arrestin2 recruitment to PTHR1, presence vs absence of ADAM19: significantly increased β-arrestin translocation to the PTHR1 when ADAM19 was present
[8]; three-parameter non-linear fit, extra sum of squares F test (<0.0001)
  Top of the curve (maximum efficacy), β-arrestin2 recruitment, with vs without ADAM19: significantly different
